Assay [1] deals with T1, recombinant human PD-1-Fc (human, UniProt Q15116 25-167). Nature of the assay: competition ELISA; blocking PD-1/PD-L2. In general terms: An ELISA detects its analyte on a solid surface through an enzyme-linked reagent.
The target of assay [2] is T1, recombinant human PD-1-Fc. Nature of the assay: competition ELISA; blocking PD-1/PD-L1.
Assay [3] addresses recombinant human PD-1 (product No. 10377-H08H, Beijing Yiqiao Shenzhou) (human, UniProt Q15116 25-167). Description: ELISA.

T1 sequence (Q15116 25-167): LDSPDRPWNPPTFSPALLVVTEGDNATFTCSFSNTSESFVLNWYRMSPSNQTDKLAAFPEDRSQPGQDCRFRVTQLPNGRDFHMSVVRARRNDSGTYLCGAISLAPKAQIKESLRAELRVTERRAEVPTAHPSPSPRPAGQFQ
Sequence of recombinant human PD-1 (product No. 10377-H08H, Beijing Yiqiao Shenzhou) (Q15116 25-167): as above

B1: PD-1 monoclonal antibody (antibody, V domains shown)
VH: QVQLVQSGAEVKKPGSSVKVSCKASGGTFSSTAISWVRQAPGQGLEWMGGIWPSFGTASYAQKFQGRVTITADESTSTAYMELSSLRSEDTAVYYCARAEYSSTGIFDYWGQGTLVTVSS
VL: DIQMTQSPSSVSASVGDRVTITCRASQGISSWLAWYQQKPGKAPKLLISAASSLQSGVPSRFSGSGSGTDFTLTISSLQPEDFATYYCQQANHLPFTFGGGTKVEIK
On to B1, for which the IC50 came out at 2.89 nM in assay [1] and 2.71 nM in assay [2]. Further, the EC50 in assay [3] was found to be 0.18 nM.

What is called IC50 is the concentration that gives 50% inhibition. By EC50 is commonly meant the midpoint of the concentration-response curve.

The values are drawn from patent US20210032343A1 (published 2021).
